The source of these data is paper PMC10132971.

Data set [1] addresses Smc5/6 hexameric complex lacking Nse5/6 with Nse4-6xHis-SNAP labelled with Alexa 647 (S. cerevisiae) (UniProt Q08204). Description: single-molecule fluorescence, counting of photobleaching steps; Alexa 647-labelled complex (2 nM unless stated otherwise) on surface-tethered lambda-DNA; 40 mM Tris-HCl pH 7.5, 100 mM NaCl, 7.5 mM MgCl2, 2 mM ATP, 30 °C; loop-extruding complexes. The settings on record: remark: other sources report otherwise.

For data set [2], the target named is Smc5/6 hexameric complex lacking Nse5/6 (S. cerevisiae) (UniProt Q08204). The experiment in a line: mass photometry; 10 nM complex with 5 nM 200 bp linear double-stranded DNA, no ATP; 40 mM Tris-HCl pH 7.5, 100 mM potassium glutamate, 7.5 mM MgCl2, 30 °C for 10 min; monomer to dimer of complexes. Conditions: remark: other sources report otherwise.
For data set [3] the target is unchanged.
Data set [4] has the same target. Description: mass photometry; 10 nM hexamer with 10 nM purified Nse5/6 (1:1) and 5 nM 200 bp DNA, no ATP; 40 mM Tris-HCl pH 7.5, 100 mM potassium glutamate, 7.5 mM MgCl2, 30 °C for 10 min. The settings on record: remark: other sources report otherwise.
The target in data set [5] is Smc5/6 octameric complex with Nse2-6xHis-SNAP labelled with Alexa 647 (S. cerevisiae) (UniProt Q08204). The experiment in a line: single-molecule fluorescence, counting of photobleaching steps; Alexa 647-labelled complex (2 nM unless stated otherwise) on surface-tethered lambda-DNA; 40 mM Tris-HCl pH 7.5, 100 mM NaCl, 7.5 mM MgCl2, 2 mM ATP, 30 °C; loop-extruding complexes.

In data set [6] the target is Smc5/6 octameric complex with Nse4-6xHis-SNAP labelled with Alexa 647 (S. cerevisiae) (UniProt Q08204). The description is as above.
Data set [7] deals with Smc5/6 octamer (WT, with Nse5/6) (Saccharomyces cerevisiae (W303)) (UniProt Q08204+Q12749+Q07913+P38632+Q05541+P43124+Q03718+P40026). The experiment in a line: single-molecule fluorescence. The settings on record: 1 M NaCl wash after 1 h incubation; nonlooping complexes, n=481; both ends tethered to surface; Mass photometry: 40 mM Tris-HCl pH 7.5, 100 mM K-glutamate, 7.5 mM MgCl2, 30 C, 10 nM protein, 5 nM DNA; single-molecule: 2 nM Smc5/6, imaging buffer with ….

The target in data set [8] is Smc5/6 hexamer (lacking Nse5/6) (Saccharomyces cerevisiae (W303)) (UniProt Q08204+Q12749+Q07913+P38632+Q05541+P43124). Description: single-molecule fluorescence. Conditions: 1 M NaCl wash; both ends tethered to surface; Mass photometry: 40 mM Tris-HCl pH 7.5, 100 mM K-glutamate, 7.5 mM MgCl2, 30 C, 10 nM protein, 5 nM DNA; single-molecule: 2 nM Smc5/6, imaging buffer with ….

As to “Smc5/6 hexameric complex lacking Nse5/6 with Nse4-6xHis-SNAP labelled with Alexa 647, Q08204 1-1093; Q12749 1-1114; Q07913 1-336; P38632 1-267; Q05541 1-303; P43124 1-402”, the stoichiometry N in data set [1] turned out to be 2.
In the case of “Smc5/6 hexameric complex lacking Nse5/6, Q08204 1-1093; Q12749 1-1114; Q07913 1-336; P38632 1-267; Q05541 1-303; P43124 1-402”, in data set [2], the dimers, percent of normalized population was 40% and the dimers, percent of total counts stood at 25%. This substance also returned a looping probability of DNA with the hexamer compared with the WT octamer in data set [3] of 15 fold. The same substance registered a dimers, percent of total counts, with Nse5/6 added 1:1 in data set [4] of 3%.
In turn, “Smc5/6 octameric complex with Nse2-6xHis-SNAP labelled with Alexa 647 (from UniProt Q08204 1-1093; Q12749 1-1114; Q07913 1-336; P38632 1-267; Q05541 1-303; P43124 1-402; Q03718 1-556)” displayed a stoichiometry N in data set [5] of 2.
On to “Smc5/6 octameric complex with Nse4-6xHis-SNAP labelled with Alexa 647 (from UniProt Q08204 1-1093; Q12749 1-1114; Q07913 1-336; P38632 1-267; Q05541 1-303; P43124 1-402; Q03718 1-556)”, for which, in data set [6], the dimer fraction was 100% and the stoichiometry N stood at 2.
Regarding lambda DNA, 48.5 kbp (48,502 bp), the results for the binding signal (% remaining bound after high-salt wash) in data set [7] and in data set [8] were 7 and 0, respectively.
